# Measured values as given in article PMC11519345, “Structural variation of types IV-A1- and IV-A3-mediated CRISPR interference”.
# T1: Type IV-A1 effector complex (Cas5-Cas8-Cas7-Cas6 crRNP), DinG-free (Pseudomonas oleovorans, UniProt A0A379PL53;A0A379PIR4;A0A379PIR9;A0A379PNK2 1-222;1-240;1-347;1-236)
# T1 sequence 1: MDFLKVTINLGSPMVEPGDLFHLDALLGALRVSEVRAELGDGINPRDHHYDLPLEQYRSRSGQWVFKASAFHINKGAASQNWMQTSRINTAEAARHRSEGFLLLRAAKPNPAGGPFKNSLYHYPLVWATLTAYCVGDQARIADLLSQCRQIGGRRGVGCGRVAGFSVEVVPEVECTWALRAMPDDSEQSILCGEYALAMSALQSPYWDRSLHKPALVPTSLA
# T1 sequence 2: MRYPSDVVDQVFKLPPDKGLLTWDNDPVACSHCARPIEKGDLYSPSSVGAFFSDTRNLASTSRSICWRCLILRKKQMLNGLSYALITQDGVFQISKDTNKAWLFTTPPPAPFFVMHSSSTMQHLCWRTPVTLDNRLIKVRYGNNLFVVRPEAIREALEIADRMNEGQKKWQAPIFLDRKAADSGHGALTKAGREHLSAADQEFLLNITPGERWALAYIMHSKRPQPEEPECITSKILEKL
# T1 sequence 3: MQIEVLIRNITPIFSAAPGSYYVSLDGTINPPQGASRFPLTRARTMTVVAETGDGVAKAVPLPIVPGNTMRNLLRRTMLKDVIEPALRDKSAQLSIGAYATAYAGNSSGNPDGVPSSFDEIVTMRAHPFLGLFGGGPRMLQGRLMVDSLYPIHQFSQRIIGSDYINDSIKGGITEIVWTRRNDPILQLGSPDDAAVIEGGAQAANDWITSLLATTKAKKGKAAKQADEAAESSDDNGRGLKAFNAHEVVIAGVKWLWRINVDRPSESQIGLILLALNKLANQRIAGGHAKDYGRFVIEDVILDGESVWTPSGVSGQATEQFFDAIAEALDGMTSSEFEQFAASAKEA
# T1 sequence 4: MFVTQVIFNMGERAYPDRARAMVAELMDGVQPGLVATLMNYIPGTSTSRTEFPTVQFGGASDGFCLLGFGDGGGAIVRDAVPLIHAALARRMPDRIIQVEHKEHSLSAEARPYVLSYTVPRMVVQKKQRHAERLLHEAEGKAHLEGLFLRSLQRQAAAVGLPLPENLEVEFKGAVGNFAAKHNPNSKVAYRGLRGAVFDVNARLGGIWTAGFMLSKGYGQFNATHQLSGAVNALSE
# B1: Type IV-A1 bubbled target DNA (TS/NTS) for cryo-EM (dsDNA)
# DNA 1: CGGTCGGGTCATACGTCGCGTCTCGAATCTGATGCGTAACTTGGATGCTTCGTGCGTGATG
# DNA 2: CATCACGCACGAAGACCAAGTCAATGCTTAGTCTAATACCTGCGCTCGTATGACCCGACCG
# Experiments:
# [1] = target: Type IV-A3 effector complex (Cas5-Cas8-Cas7-Cas6 crRNP), DinG-free (Klebsiella pneumoniae) (UniProt A0A8G1XN67+A0A7Z7WW72+A0A333ESG5); assay: EMSA; conditions: crRNA; EMSA: 10 mM HEPES pH 7.5, 150 mM NaCl, 1 nM DNA, on ice then 20 min RT, 6% native PAGE in TBE at 4 C; cryo-EM: 10 uM complex + 15 uM DNA in the same buffer …; scale: fold tighter than type IV-A1 complex on its target
# [2] = target: type IV-A3 Cas7 (Csf2) from Klebsiella pneumoniae (Klebsiella pneumoniae); assay: cryo-EM structure; type IV-A3 effector complex (10 µM) reconstituted with bubbled target dsDNA (15 µM) in 10 mM HEPES-Na pH 7.5, 150 mM NaCl, then SEC; without DinG
# [3] = target: type IV-A1 Cas7 (Csf2) from Pseudomonas oleovorans (Pseudomonas oleovorans); assay: cryo-EM structure; type IV-A1 effector complex (10 µM) reconstituted with bubbled target dsDNA (15 µM) in 10 mM HEPES-Na pH 7.5, 150 mM NaCl, then SEC; particle class without DinG
# [4] = target: T1, Type IV-A1 effector complex …; assay: cryo-EM; crRNA; no DinG; 3.0 A; PDB code not assigned in the material (8RC2/8RC3/8RFJ); EMSA: 10 mM HEPES pH 7.5, 150 mM NaCl, 1 nM DNA, on ice then 20 min RT, 6% native PAGE in TBE at 4 C; cryo-EM: 10 uM complex + 15 uM DNA in the same buffer, 10; conditions: protein: recombinant; tags: His6 C-terminal on Cas8; copies: 1;1;5;1; bubble: non-complementary protospacer, paired 15 nt and 14+ nt ends
molecule,measurement,setting,value
"IV-A3 EMSA target, no mismatch",binding signal,[1],10
type IV-A3 Cas7 (Csf2) from Klebsiella pneumoniae (natural protein),stoichiometry N,[2],6
type IV-A1 Cas7 (Csf2) from Pseudomonas oleovorans (natural protein),stoichiometry N,[3],5
B1,binding result,[4],binds
